Results from the supplement of paper PMC9732359.
± gives the uncertainty stated by the source.

Experiment: protein stability index of a GFP-peptide fusion (yeast GPS) (PSI 1-4); higher = more stable; sorted into four equal gates, so the index is relative within each strain
Procedure, shortened: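 Sequencing reads from sorted gates were used to score each peptide. The library consisted of tiled 17-residue yeast protein peptides fused downstream of GFP on a Cherry-expressing plasmid, pooled and carried in yeast. Mid-log cultures in leucine-free medium were split into four equal gates by GFP/Cherry ratio, and each gate's plasmids were PCR-amplified and Illumina-sequenced. The protein stability index adds up, over all gates, the read frequency multiplied by the gate number.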

Sequence	protein stability index (doa10∆)	protein stability index (pdr5∆)	protein stability index (san1∆)	protein stability index (ubr1∆)
INLAMNESSLALEFVSL [SRB4]	1.44 ± 0.088	1.41 ± 0.074	1.81 ± 0.12	1.92 ± 0.064
DFKNEESLSEEHASLLV [MED8]	3.35 ± 0.11	3.12 ± 0.16	3.08 ± 0.06	3.26 ± 0.063
ALIDTEFANFELKDICS [YML103C/NUP188]	2.12 ± 0.063	2.49 ± 0.06	2.65 ± 0.063	2.16 ± 0.037
DLCSSVLSQFERSYPSE [ROX3]	2.58 ± 0.094	3.42 ± 0.17	2.98 ± 0.074	3.17 ± 0.086
GANTSAAQTLLQMDYKD [PRE9]	3 ± 0.061	3.13 ± 0.058	3.09 ± 0.048	2.96 ± 0.051
FVSSLSNTSTLKNMLYV [BRR2]	1.88 ± 0.058	2.08 ± 0.049	1.85 ± 0.064	2.18 ± 0.036
NYKGLPKKYKENNTDSA [SMC1]	3.32 ± 0.07	3.31 ± 0.085	3.28 ± 0.045	3.36 ± 0.061
TPMTRISELPPQIRQEI [YGL172W/NUP49]	2.84 ± 0.074	3.11 ± 0.055	2.65 ± 0.051	2.86 ± 0.043
ALRGMFKDRFKDEPVQN [FAS2]	3.56 ± 0.087	3.43 ± 0.085	3.35 ± 0.069	3.58 ± 0.11
DSQIVTPGELVTDDPIW [RRP4]	2.78 ± 0.19	3.07 ± 0.11	2.76 ± 0.095	2.94 ± 0.077
TETKRLVVIRFGRKNDR [DIB1]	2.87 ± 0.11	2.24 ± 0.089	2.03 ± 0.12	2.89 ± 0.065
VAATNTPIIFIGTGEHI [SRP54]	2.17 ± 0.1	3.03 ± 0.12	2.26 ± 0.083	2.6 ± 0.071
KPPTQKTDTKVSFRTHN [SRP21]	2.52 ± 0.078	2.82 ± 0.072	2.57 ± 0.07	2.7 ± 0.065
RSIRGSFTSQGTISIQL [MTR3]	2.78 ± 0.067	2.73 ± 0.057	2.77 ± 0.066	2.61 ± 0.041
VPQTEEARAEAINLMGV [RPO31]	3.15 ± 0.11	2.97 ± 0.1	3 ± 0.085	3.12 ± 0.052
YQTRARQKARTDAHTPL [RPR2]	3.29 ± 0.1	3.14 ± 0.09	3.32 ± 0.058	3.27 ± 0.078
KKIGCYMFANLEFSIYH [CSN12]	2.07 ± 0.071	1.95 ± 0.064	2.98 ± 0.06	2.51 ± 0.052
KDTNDHVDKRTKIDQEA [ISW2]	2.6 ± 0.047	2.62 ± 0.048	2.77 ± 0.051	2.57 ± 0.036
QHYLDTATAPRLFDKLK [QCR6]	2.96 ± 0.055	3.04 ± 0.045	2.84 ± 0.061	2.76 ± 0.091
CTSLMDIIVAIKIFELK [IRR1]	2.1 ± 0.2	1.41 ± 0.16	2.13 ± 0.16	1.36 ± 0.072
TTNNNNTNNNNTNNNNN [SWI1]	3.39 ± 0.087	3.5 ± 0.082	3.43 ± 0.06	3.42 ± 0.079
YDSRGVGEMKLLKKKDD [YLR335W/NUP2]	2.51 ± 0.098	2.64 ± 0.17	2.52 ± 0.1	2.6 ± 0.17
SEILIISSLMFDEEFDP [IRR1]	2.5 ± 0.094	2.63 ± 0.095	2.67 ± 0.098	2.97 ± 0.07
TSTDGKKRSKARKETYS [HTB1]	3.07 ± 0.24	3.11 ± 0.14		
NTAAALVSLLDENDSKK [YAR002W/NUP60]	3.13 ± 0.097	2.95 ± 0.12	3.01 ± 0.087	3.01 ± 0.099
RSTDEFNGAQLKAVTVE [RPT5]	2.86 ± 0.29	3.71 ± 0.24		2.06 ± 0.19
FNQFVDYTLQDIICEDS [RPB2]	2.72 ± 0.1	2.86 ± 0.083	2.78 ± 0.053	2.36 ± 0.079

Sequence	protein stability index (doa10∆)	protein stability index (pdr5∆)	protein stability index (san1∆)	protein stability index (ubr1∆)
KKWNDLKNKNFKCQEKD [SIR2]	3.46 ± 0.23	3.34 ± 0.14	3.37 ± 0.072	3.11 ± 0.12
DIVPYFLKHNGEEDAVD [RPN1]	3.26 ± 0.12	3.27 ± 0.18	2.95 ± 0.17	3.22 ± 0.094
KSRGSDLQYLGEFSGKN [RRP6]	3.13 ± 0.088	3.34 ± 0.11	3.45 ± 0.082	3.31 ± 0.073
NNHNDSNRLHPPDIHPN [GRR1]	2.76 ± 0.046	2.82 ± 0.044	2.8 ± 0.039	2.77 ± 0.035
EDVALNEQVKKFFLNNV [NAS6]	2.64 ± 0.047	2.5 ± 0.058	2.44 ± 0.051	2.88 ± 0.042
LNHILEKSTQLQQKHEL [YGR119C/NUP57]	2.52 ± 0.054	2.91 ± 0.042	2.66 ± 0.034	2.82 ± 0.035
GMNLLSNLSQNVVPYHR [SWI1]	1.88 ± 0.079	2.88 ± 0.1	2.46 ± 0.098	2.43 ± 0.065
KTCAEVIGGNSLFHIVV [SMC3]	3.05 ± 0.11	3.1 ± 0.1	2.96 ± 0.071	3.01 ± 0.089
RTIANQDHFHRLNYLYQ [RPR2]	2.64 ± 0.062	2.88 ± 0.043	2.73 ± 0.034	2.58 ± 0.026
EGIKETQAKRIFLQQFL [SWI1]	2.37 ± 0.12	2.75 ± 0.14	2.74 ± 0.086	2.26 ± 0.066
VTKGGTVENPLRNWEEL [PRP28]	2.55 ± 0.073	2.71 ± 0.1	3.33 ± 0.055	2.89 ± 0.057
REKYNMKGPAALWDVQF [ARP9]	3.49 ± 0.073	3.59 ± 0.08	3.49 ± 0.062	3.45 ± 0.064
TINGKVNGRTKSNTIPV [GAL11]	3 ± 0.091	2.77 ± 0.12	3.02 ± 0.099	3.19 ± 0.097
IKETKENDEEFYKNKYS [RPN2]	1.34 ± 0.13	1.5 ± 0.19	1.31 ± 0.26	1.51 ± 0.21
SSFTFGSTTIEKKNDEN [YLR335W/NUP2]	2.79 ± 0.084	2.49 ± 0.094	3.08 ± 0.063	2.99 ± 0.046
FVKVTKATLELLKLIEP [RPL7A]	3.06 ± 0.11	2.87 ± 0.096	2.62 ± 0.15	2.91 ± 0.13
IGSQRGRRLSMLASQAN [DSN1]	1.75 ± 0.057	2.47 ± 0.068	1.88 ± 0.096	2.18 ± 0.047
AQAQAQAQAQVYAQQST [PGD1]	2.87 ± 0.053	3.05 ± 0.052	2.97 ± 0.045	3.01 ± 0.044
HNGAPHHAIEEAESLLQ [RPO21]	3.07 ± 0.12	3.39 ± 0.18	2.66 ± 0.29	3 ± 0.088
HILFQNNPDMMIQPPQQ [ROX3]	2.94 ± 0.062	2.96 ± 0.07	3.06 ± 0.066	3.02 ± 0.046
KDEEETEYFENKQSVSN [DSN1]	3.46 ± 0.12	3.4 ± 0.091	3.31 ± 0.085	3.53 ± 0.054
LQQELATTQDQVASIIE [NUT2]	2.77 ± 0.059	2.95 ± 0.043	3.23 ± 0.053	2.98 ± 0.037
LNISPFTFGLTVVQVYD [RPP0]	1.31 ± 0.043	1.61 ± 0.052	1.55 ± 0.072	1.2 ± 0.044
DFLLSDWNKRFSHLAGG [BRR2]	2.71 ± 0.053	2.82 ± 0.055	2.96 ± 0.065	2.85 ± 0.048
HGGGNHQHIGKASTISR [RPL2A]	3.18 ± 0.051	3.31 ± 0.052	3.08 ± 0.039	3.11 ± 0.04
YQELFIQPKNSDDQQEA [YML103C/NUP188]	2.68 ± 0.066	2.31 ± 0.061	2.71 ± 0.053	2.64 ± 0.054
